Measurements as given in patent US20180228802A1.

B1: Clone No. 16 (antibody, human IgG4 S228P, kappa, V domains shown)
VH: EVQLVQSGAEVKKPGESLRISCKGSGYTFTTYWMHWVRQAPGQGLEWMGNIYPGTGGSNFDEKFKNRFTISRDNSKNTLYLQMNSLRAEDTAVYYCTRWTTGTGAYWGQGTTVTVSS
VL: EIVLTQSPDFQSVTPKEKVTITCKSSQSLLDSGNQKNFLTWYQQKPGQAPRLLIYWASTRESGVPSRFSGSGSGTDFTFTISSLEAEDAATYYCQNDYSYPYTFGQGTKVEIKR
B2: Clone No. 3 (antibody, human IgG4 S228P, kappa, V domains shown)
VH: EVQLVQSGAEVKKPGESLRISCKGSGYTFTTYWMHWIRQSPSRGLEWLGNIYPGTGGSNFDEKFKNRFTISRDNSKNTLYLQMNSLRAEDTAVYYCTRWTTGTGAYWGQGTTVTVSS
VL: DIQMTQSPSSLSASVGDRVTITCKSSQSLLDSGNQKNFLTWYQQKPGQAPRLLIYWASTRESGIPPRFSGSGYGTDFTLTINNIESEDAAYYFCQNDYSYPYTFGQGTKVEIKR
B3: Clone No. 1 (antibody, human IgG4 S228P, kappa, V domains shown)
VH: EVQLVQSGAEVKKPGESLRISCKGSGYTFTTYWMHWVRQATGQGLEWMGNIYPGTGGSNFDEKFKNRVTITADKSTSTAYMELSSLRSEDTAVYYCTRWTTGTGAYWGQGTTVTVSS
VL: EIVLTQSPATLSLSPGERATLSCKSSQSLLDSGNQKNFLTWYQQKPGQAPRLLIYWASTRESGVPSRFSGSGSGTEFTLTISSLQPDDFATYYCQNDYSYPYTFGQGTKVEIKR
B4: Clone No. 12 (antibody, human IgG4 S228P, kappa, V domains shown)
VH: EVQLVQSGAEVKKPGESLRISCKGSGYTFTTYWMHWVRQATGQGLEWMGNIYPGTGGSNFDEKFKNRVTITADKSTSTAYMELSSLRSEDTAVYYCTRWTTGTGAYWGQGTTVTVSS
VL: DIQMTQSPSSLSASVGDRVTITCKSSQSLLDSGNQKNFLTWYLQKPGQSPQLLIYWASTRESGVPSRFSGSGSGTDFTFTISSLEAEDAATYYCQNDYSYPYTFGQGTKVEIKR
B5: Clone No. 4 (antibody, human IgG4 S228P, kappa, V domains shown)
VH: EVQLVQSGAEVKKPGESLRISCKGSGYTFTTYWMHWIRQSPSRGLEWLGNIYPGTGGSNFDEKFKNRFTISRDNSKNTLYLQMNSLRAEDTAVYYCTRWTTGTGAYWGQGTTVTVSS
VL: EIVLTQSPATLSLSPGERATLSCKSSQSLLDSGNQKNFLTWYQQKPGKAPKLLIYWASTRESGVPSRFSGSGSGTDFTFTISSLQPEDIATYYCQNDYSYPYTFGQGTKVEIKR
B6: Clone No. 5 (antibody, human IgG4 S228P, kappa, V domains shown)
VH: EVQLVQSGAEVKKPGESLRISCKGSGYTFTTYWMHWVRQATGQGLEWMGNIYPGTGGSNFDEKFKNRVTITADKSTSTAYMELSSLRSEDTAVYYCTRWTTGTGAYWGQGTTVTVSS
VL: EIVLTQSPATLSLSPGERATLSCKSSQSLLDSGNQKNFLTWYQQKPGKAPKLLIYWASTRESGVPSRFSGSGSGTDFTFTISSLQPEDIATYYCQNDYSYPYTFGQGTKVEIKR
B7: Clone No. 2 (antibody, human IgG4 S228P, kappa, V domains shown)
VH: EVQLVQSGAEVKKPGESLRISCKGSGYTFTTYWMHWVRQATGQGLEWMGNIYPGTGGSNFDEKFKNRVTITADKSTSTAYMELSSLRSEDTAVYYCTRWTTGTGAYWGQGTTVTVSS
VL: DIQMTQSPSSLSASVGDRVTITCKSSQSLLDSGNQKNFLTWYQQKPGQAPRLLIYWASTRESGIPPRFSGSGYGTDFTLTINNIESEDAAYYFCQNDYSYPYTFGQGTKVEIKR

Columns and labels:
PD-1 [1] = experiment: FACS; rank of the clone among the humanized BAP049 clones; cells and conditions not described in this filing
Sequence of PD-1 (chain, as listed by the source limits assumed): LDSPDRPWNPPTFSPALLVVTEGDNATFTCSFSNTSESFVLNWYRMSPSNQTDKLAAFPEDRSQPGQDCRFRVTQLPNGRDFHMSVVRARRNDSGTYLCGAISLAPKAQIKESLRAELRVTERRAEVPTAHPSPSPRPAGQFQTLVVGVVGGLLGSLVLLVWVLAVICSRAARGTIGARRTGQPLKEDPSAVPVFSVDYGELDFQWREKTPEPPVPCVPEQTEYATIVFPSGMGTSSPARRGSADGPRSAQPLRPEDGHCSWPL

PD-1 [2] = experiment: competition binding, 2nd experiment; rank among the clones; competitor not given
PD-1 [3] = experiment: competition binding, 1st experiment; rank among the clones; competitor not given

| Binder | Ranking, FACS data (PD-1 [1]) | Competition Binding, 2nd exp. (ranking) (PD-1 [2]) | Competition Binding, 1st exp. (ranking) (PD-1 [3]) |
| --- | --- | --- | --- |
| B1 | 15 | 15 | 16 |
| B2 | 7 | 14 | 8 |
| B3 | 2 | 2 | 7 |
| B4 | 3 | 16 | 8 |
| B5 | 14 | 15 | 15 |
| B6 | 5 | > 4 | 5 |
| B7 | 6 | 2 | 3 |
